Measured values taken from the nanobody polyreactivity screen of Harvey et al. (2022).

Experiment: yeast display, Sf9 membrane polyspecificity reagent, FACS + sequencing; frameworks hold sequencing errors
Outline: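 Sorting gates, low and high (top ~1%), were placed on anti-HA fluorescence to track expression and on streptavidin fluorescence to track reagent binding. A clone's polyreactivity label is taken from the gate it came out of. The reagent was 10% biotinylated, detergent-solubilized Sf9 membrane, applied for 1 hour at 4 °C to galactose-induced yeast display cells.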

Sequence	polyreactivity (PSR sort gate)
QVHIVESGGGLVQAAGSLRLSCAASGSTLAIYDMGWYRQAPGKERELVAAISGGGSTYADSVKGRFTISPDNAKNTVYLHMNSLKTEDTAVYYFNADGWGDLFWSNFRFDYWVQGTQVTVSS	low polyreactivity
HDHLVESGAGLVQAGGSLRLSCAASGLIFPSNAMGWYRQAPGKERELVAAITNGGRTYYADSVKGRFTISRDNATNTVYLQMNSMKPEDTSVYYCNAGYTYRGYWSYGYWGQGTQVTVSS	high polyreactivity
QVQLVESGGGLVQAGGSLRLSCAASGIIFTGNAMGWYRQAPGKERELVAAITSGDTTNYADSVKGRFTISRDNAKNTVYLQKNSLKPEDTAVYYCAKELQVRQAGDYWGQGTQVTVSS	low polyreactivity
QVQLVESGGGLVQAGGRLRLSCAASGITLRRNALVWYRQAPGKERELVARITWRGSTYYAESVKGRFTISRDNAKNTVYLQMNSLKPADTAVYYCAADYRSWQPPTKLPPGASDYWGQGTQVTVSS	low polyreactivity
QVQLVESGGGLVQAGGSLRLSCAASGSTFLRYAMGWYRQAPGKERELVAAISYRDGSTYYADSVKGRFTISRDNAKNTVYLQMNSLKPEDTAVYYCARGSWYRSAYYYWGQGTQVTVSS	high polyreactivity
QVQLVESGGGLVQAGGSLRLSCAASGFIFVRNAMGWYRQAPGKERELVAAITGRGGRTYYADSVKGRFTISRDNAKNTVYLQMNSLKPEVTAVYYCAIDSPDDHFGYWGQGTQVTVSS	high polyreactivity
QVQLVESGGGLVQAGGSLRLSCAASGSIFFPYAMGWYRQATGKERELVASINSGGITTYADSVKGRFTISRDNAKNTVYLQMNSLKPEDTAVYYCARYVSYRWVRYNYWGQGTQVTVSS	high polyreactivity
LGQLVESGGGLVQAGGSLRLSCAASGFIFYYYDMGLYRQAPGKESELVATISRGGSRYYADSVKGRFTISRDNAKNTVYLQMNSLKPEDTAVYYCAAYRSFGYRNWNRFDYWGQGTQVTVSS	high polyreactivity
QVQLVESGGGLVQAGGSLRLSCAASGSTFVYNAMGWYRQAPGKERELVAAITRRGGGTYYADSVKGRFTISRDNAKNTVYLQMNSLKPEDTAVYYCAADSRGWSLDGDYWGQGTQVTVSS	low polyreactivity
QVQLVESGGGLVQAGGSLRLSCAASGRIIGYYAMGWYRQAPGKERELVAAITSGGRTNYADSVKGRFTISRDNAKNTVYLQMNSLKPEDTAVYYCAKEYPRYSSPYDYWGQGTQVTVSS	low polyreactivity
QVQLVESAGGLVQAGVSLRLSCAASGSIYPGSAMRWYRQAPGNERELVAAITFGGGITYYADSVKGRFTISRDNAKYTVYLQMNSLKPEDSAVYYCAAKSPRILLDYWGQGTQVTVSS	low polyreactivity
QVQLVESGGGLVQAGGSLRLSCAASGRIYGVYVMGWYRQAPGKERELVAAISWSGSHTYYADSVKGRFTISRDNAKNTVYLQMNSLKPEDTAVYYCKADSYPDYTGPGLDWYDYWGQGTQVTVSS	low polyreactivity
QVQLVESGGGLVQAGGSLRLSCAPSGNTFEHYAMGWYRQAPGKERELVAAISYSGGSTYYADSVKGRFTISRDNAKNTVYLQMNSLKPEDTAVYYCNARGRASATGRRGRPDPFGYWGQGTQVTLSS	high polyreactivity
QVQLVESGGGLVQAGGSLRLSCAASGSTFYSNAMGWYRQAPGKERELVDSISWSSGSTYYADSVKGRFTISRDNAKNTVYLQMNSLKPEDTAVYYCATDAGGPYRFGYWGQGTQVTVSS	low polyreactivity
QVQLVESGGGLVQAGGSLRLSCAASGRTFGLYAMGWYRQSPGKERELVATISRGGSTYYADSVKGRFTISRDNAKNTVYLQMNSLKPEDTAVYYCNAAKYTWYYGYNYWGQGTKVTVSS	high polyreactivity
QVQLVESGGGLVQAGGSLRLSCAASGSTFAYYAMGWYRHAPGKERELVAAISSGGSTYYADSVKGRFTISRDNAKNTVYLQMNSLKPEDTEVYYCNKLWVGKFKRYEFGYWGQGSQVTVSS	low polyreactivity
QVQLVESGGGLVQAGGSLRLSCAASGITFSRNVMGWYRQAPGKERELVAAISRSGGRTYYADSVKGRFTISRDNAKNTVYLQMNSLKPEDTAVYDCNRDIGGTSVLDDYWGQGTQVTVSS	low polyreactivity
